Measured values from PMC7614720.

Tested on: C[C@@H](O)[C@H]1C(=O)N2C(C(=O)O)=C([C@H]3CCCO3)S[C@H]12
Test: purified protein
Settings: two Zn2+ ions active site

Substance: VIM-2 (Pseudomonas aeruginosa)
- Km: 5.11 µM
- kcat: 36.7 s⁻¹
- kcat/Km: 7.17e+06 M⁻¹ s⁻¹
